Results reported in publication doi:10.1101/2020.12.03.409334.

Biological target: 4R1N tau::mCherry::Cry2Olig chimera (UniProt P10636)
Assay: native gel or EMSA

## 4R1N tau::mCherry::Cry2Olig chimera (from UniProt P10636-7 1-412)
  stoichiometry N: 2
